Experimental data from article PMC4357707 (Nucleic Acids Research, 2015).

Columns and labels:
HEN1 Δ38-45 = biological target: T1, HEN1 Δ38-45 (Arabidopsis thaliana, UniProt Q9C5Q8 1-37+=G+46-942, internal_change); assay: EMSA
T1 sequence: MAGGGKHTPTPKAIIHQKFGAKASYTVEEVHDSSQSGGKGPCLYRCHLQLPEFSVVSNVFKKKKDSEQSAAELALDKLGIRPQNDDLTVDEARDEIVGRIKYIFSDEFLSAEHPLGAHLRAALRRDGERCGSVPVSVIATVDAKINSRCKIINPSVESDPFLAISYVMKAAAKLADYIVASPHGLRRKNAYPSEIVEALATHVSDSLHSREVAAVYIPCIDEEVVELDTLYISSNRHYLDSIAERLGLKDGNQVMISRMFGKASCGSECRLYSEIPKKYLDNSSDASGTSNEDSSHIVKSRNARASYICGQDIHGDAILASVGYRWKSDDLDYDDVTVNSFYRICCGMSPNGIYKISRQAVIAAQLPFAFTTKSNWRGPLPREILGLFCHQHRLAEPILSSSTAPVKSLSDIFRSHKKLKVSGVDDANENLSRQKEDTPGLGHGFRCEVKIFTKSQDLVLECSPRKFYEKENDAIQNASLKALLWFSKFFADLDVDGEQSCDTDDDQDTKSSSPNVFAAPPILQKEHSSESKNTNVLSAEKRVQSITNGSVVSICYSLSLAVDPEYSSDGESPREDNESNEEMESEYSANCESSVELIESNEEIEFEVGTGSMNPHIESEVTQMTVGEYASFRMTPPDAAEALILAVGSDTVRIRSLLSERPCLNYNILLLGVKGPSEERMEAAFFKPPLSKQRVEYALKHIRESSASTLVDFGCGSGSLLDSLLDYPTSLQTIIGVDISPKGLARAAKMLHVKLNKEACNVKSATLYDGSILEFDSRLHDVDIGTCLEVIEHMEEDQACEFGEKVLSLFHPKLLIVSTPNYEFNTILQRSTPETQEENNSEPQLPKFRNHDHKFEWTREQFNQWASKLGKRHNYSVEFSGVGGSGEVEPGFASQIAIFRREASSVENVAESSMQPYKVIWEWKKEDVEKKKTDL

HEN1-RHK389,397,477AAA = biological target: T2, HEN1-RHK389,397,477AAA (Arabidopsis thaliana, UniProt Q9C5Q8 1-942, R389A;H397A;K477A); assay: EMSA
T2 sequence: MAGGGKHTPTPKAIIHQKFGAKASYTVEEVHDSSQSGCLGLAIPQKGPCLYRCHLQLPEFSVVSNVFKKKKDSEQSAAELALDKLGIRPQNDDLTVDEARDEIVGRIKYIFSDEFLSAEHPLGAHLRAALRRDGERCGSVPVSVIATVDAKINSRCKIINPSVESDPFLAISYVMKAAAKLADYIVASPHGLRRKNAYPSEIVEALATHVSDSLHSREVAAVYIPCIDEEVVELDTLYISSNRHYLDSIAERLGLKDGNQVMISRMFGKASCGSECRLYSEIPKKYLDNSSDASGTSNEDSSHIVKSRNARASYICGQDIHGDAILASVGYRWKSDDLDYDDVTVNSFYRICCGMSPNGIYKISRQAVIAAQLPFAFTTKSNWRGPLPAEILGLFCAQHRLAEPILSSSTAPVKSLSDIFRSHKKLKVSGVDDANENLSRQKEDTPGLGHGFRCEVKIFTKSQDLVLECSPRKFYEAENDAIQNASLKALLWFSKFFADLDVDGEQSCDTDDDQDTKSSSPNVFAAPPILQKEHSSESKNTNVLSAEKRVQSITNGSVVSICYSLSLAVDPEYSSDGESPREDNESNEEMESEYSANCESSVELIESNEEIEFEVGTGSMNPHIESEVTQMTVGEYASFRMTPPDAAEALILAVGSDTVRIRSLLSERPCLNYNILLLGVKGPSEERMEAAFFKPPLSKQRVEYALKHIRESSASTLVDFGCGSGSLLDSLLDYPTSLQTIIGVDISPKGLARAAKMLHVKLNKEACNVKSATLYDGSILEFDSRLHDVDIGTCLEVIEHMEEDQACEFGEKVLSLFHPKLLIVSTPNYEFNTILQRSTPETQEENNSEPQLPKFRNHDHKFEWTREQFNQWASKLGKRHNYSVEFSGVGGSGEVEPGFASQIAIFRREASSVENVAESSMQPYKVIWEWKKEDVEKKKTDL

B1: miR173/miR173* (dsRNA)
RNA 1: UUCGCUUGCAGAGAGAAAUCAC
RNA 2: GAUUCUCUGUGUAAGCGAAAG
Kd (HEN1 Δ38-45): 0.79 ± 0.05 nM | Kd (HEN1-RHK389,397,477AAA): 302 ± 29 nM
